Bridges are numbered along the chain shown (N, C = ends). Where no end group is shown, it is not given here. The star is where a group is joined. Biotin = O=C1N[C@H]2[C@H](CS[C@H]2CCCCC(=O)*)N1
Key:
hCGRP(1-13) [1] = target: T1, hCGRP(1-13) (human, disulfide 7-12); experiment: BLI (Octet); hCGRP (1-13) against the fragments holding 8-19
T1 construct: also called polypeptide 1-13
T1 peptide: Biotin-GGGGGACDTATCVTHRLA
Experimental: (§1) The kinetic parameters of C245 Fab (Fab monomer fragments derived from antibody C245) binding to six synthetic human CGRP alpha polypeptide fragments (polypeptide 1-13, polypeptide 1-19, polypeptide 1-37, polypeptide 8-19, polypeptide 8-26, and polypeptide 13-24) were determined on an Octet RBD 96e system. Human CGRP synthetic polypeptide fragments were immobilized on the surfaces of SA bioprobes (Sartorius, Cat. No. 18-5019) at the following concentrations: 46.5 nM for hCGRP (1-13), 8.5 nM for CGRP (1-19), 15.5 nM for hCGRP (1-37), 8.5 nM for hCGRP (8-19), 15.5 nM for hCGRP (8-26), and 46.5 nM for hCGRP (13-24). The immobilized synthetic human CGRP polypeptide fragments were bound to 45 nM of C245 Fab and the binding dissociation curves were fitted using analytical software.

hCGRP(8-19) = target: T2, hCGRP(8-19) (human); experiment: BLI (Octet), biotin-peptide on SA probe, 45 nM Fab
T2 construct: also called polypeptide 8-19
T2 peptide: Biotin-GGGGGVTHRLAGLLSRS
Experimental: as §1
(§2) The kinetic parameters of hu224 Fab (Fab monomer fragments derived from humanized antibody hu224) binding to four synthetic human CGRP alpha polypeptide fragments (polypeptide 1-13, polypeptide 1-19, polypeptide 1-37, and polypeptide 8-19) were determined on an Octet RBD 96e system. Human CGRP synthetic polypeptide fragments were immobilized on the surfaces of SA bioprobes (Sartorius, Cat. No. 18-5019) at the following concentrations: 8.5 nM for CGRP (1-19), 15.5 nM for hCGRP (1-37), 10 nM for hCGRP (8-19), and 15.5 nM for hCGRP (8-26). The immobilized synthetic human CGRP polypeptide fragments were bound to 45 nM of hu224 Fab and the binding dissociation curves were fitted using analytical software.

hCGRP(1-13) [2] = target: T1, hCGRP(1-13); experiment: BLI (Octet), biotin-peptide on SA probe, 45 nM Fab
Experimental: as §1, §2

hCGRP(1-19) = target: T3, hCGRP(1-19) (human, N-terminal biotin; CYS residues at positions 7 and 12 theoretically form 1 intrachain disulfide bond); experiment: BLI (Octet), biotin-peptide on SA probe, 45 nM Fab
T3 construct: also called polypeptide 1-19
T3 peptide: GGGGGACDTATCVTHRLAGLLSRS
Experimental: as §1, §2

hCGRP(8-26) = target: T4, hCGRP(8-26) (human, N-terminal biotin); experiment: BLI (Octet), biotin-peptide on SA probe, 45 nM Fab
T4 construct: also called polypeptide 8-26
T4 peptide: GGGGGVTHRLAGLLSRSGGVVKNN
Experimental: as §1, §2

hCGRP(1-37) = target: T5, hCGRP(1-37) (human, N-terminal biotin; C-terminal phenylalanine amide (F-NH2); CYS residues at positions 7 and 12 theoretically form 1 intrachain disulfide bond); experiment: BLI (Octet), biotin-peptide on SA probe, 45 nM Fab
T5 construct: also called polypeptide 1-37; full-length hCGRP (1-37) polypeptide
T5 peptide: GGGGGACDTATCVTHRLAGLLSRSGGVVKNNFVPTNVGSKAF
Experimental: as §1, §2

hCGRP(13-24) = target: T6, hCGRP(13-24) (human); experiment: BLI (Octet), biotin-peptide on SA probe
T6 construct: also called polypeptide 13-24
T6 peptide: Biotin-GGGGGAGLLSRSGGVVK
Experimental: as §1

[3] = target: T7, synthetic human α-CGRP polypeptide (SEQ ID NO: 97)-NH2 (human, C-terminal phenylalanine amide (F-NH2); one intrachain disulfide bond between the two CYS residues (printed as positions 7 and 12)); experiment: BLI (Octet), antibody on AHC2, 50 nM CGRP; association pH 7.4, dissociation pH 7.4
T7 construct: Analyte in solution (50 nM) in the pH-dependence BLI assay
T7 peptide: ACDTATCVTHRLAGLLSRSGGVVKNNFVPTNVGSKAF
Experimental: (§3) The association/dissociation profiles for three antibodies Hu224, galcanezumab analogue and fremanezumab analogue binding to the antigen human α-CGRP in solutions at different pH (7.4 and 5.5) were determined on an Octet RBD96e system. The pH 7.4 buffer contained 10 mM HEPES (pH 7.4), 150 mM sodium chloride, 3 mM EDTA, and 0.05% P20. The pH 5.5 buffer contained 10 mM NaAc (pH 5.5), 150 mM sodium chloride, and 0.05% P20. The three antibodies Hu224, galcanezumab analogue, and fremanezumab analogue were immobilized on the surfaces of AHC2 bioprobes (Sartorius, Cat. No. 18-5142) at 10 μg/mL, respectively. 50 nM human α-CGRPs diluted in different pH (7.4 and 5.5) buffers were used to bind to the antibodies during the 0 to 200 s antigen association phase, and different pH (7.4 and 5.5) buffers were used to wash during the 0 to 200 s antigen dissociation phase. The conditions were pH 7.4 association and pH 7.4 dissociation, pH 7.4 association and pH 5.5 dissociation, and pH 5.5 association and pH 5.5 dissociation. The binding signals of the antigen at the time of injection for 200 s were calculated using analytical software and fitted to give the dissociation constant kd. The amino acid sequence of the synthetic human α-CGRP polypeptide fragment is […] […]

[4] = target: T7, synthetic human α-CGRP polypeptide (SEQ …); experiment: BLI (Octet), antibody on AHC2, 50 nM CGRP; association pH 7.4, dissociation pH 5.5
Experimental: as §3

[5] = target: T7, synthetic human α-CGRP polypeptide (SEQ …); experiment: BLI (Octet), antibody on AHC2, 50 nM CGRP; association pH 5.5, dissociation pH 5.5
Experimental: as §3

Biotin-huCGRPaSA = target: T8, Biotin-huCGRPaSA (human, not fully specified; biotin (position not given)); experiment: ELISA, supernatant; relative to chimeric C245
T8 construct: exact construct ('aSA') not explained; also called Biotin CGRPaSA; full-length (1-37) CGRP
T8 peptide: T7 peptide
Outline: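 Antibodies, including reference chimeric C245, titrated 2.5-fold from 1000 ng/mL and incubated 60 min at 37°C on wells coated with 1.0 μg/mL biotin-CGRPaSA and blocked with 2% BSA. Bound IgG detected with HRP anti-human Fc antibody and TMB, acid-stopped, absorbance 450/620 nm.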

CGRP antigen = experiment: cell-based or functional assay

B1: C245 Fab (Fab, V domains shown)
VH: EVQLQQSGPELVKPGASMKISCKASGYSFTGYTMNWVKQSHGNNLEWIGLINPYIGNTHYNQKFKDKATFTVDRSSSTAYMALLSLTSEDSAVYYCARELDSGFDYWGQGTTLTVSS
VL: DVLMTQTPLSLPVSLGDQASLSCRSSQNIVHSNGDTYLEWYLQKPGQSPKLLIYKVSNRFSGVPDRFSGSGSGTDFTLKISRVEAEDLGVYYCYQGSHVPWTFGGGTKLEIK
notes: Fab of chimeric C245; also called Fab monomer fragments derived from antibody C245
hCGRP(1-13) [1]
  fold decrease in affinity: 100 fold
hCGRP(8-19)
  Kd: 0.252 nM
  koff: 9.32e-05 s⁻¹
  kon: 360000 M⁻¹ s⁻¹
hCGRP(1-13) [2]
  Kd: 24.4 nM
  koff: 0.0172 s⁻¹
  kon: 704000 M⁻¹ s⁻¹
hCGRP(1-19)
  Kd: 0.0721 nM
  koff: 2.58e-05 s⁻¹
  kon: 357000 M⁻¹ s⁻¹
hCGRP(8-26)
  Kd: 0.952 nM
  koff: 0.000316 s⁻¹
  kon: 332000 M⁻¹ s⁻¹
hCGRP(1-37)
  Kd: 0.249 nM
  koff: 6.95e-05 s⁻¹
  kon: 280000 M⁻¹ s⁻¹
hCGRP(13-24)
  binding result: no binding (tested: 45 nM)

B2: hu224 (antibody, human IgG4 S228P, kappa, V domains shown)
VH: QVQLVQSGAEVKKPGASVKVSCKASGYSFTGYTMNWVRQAPGQRLEWMGLINPYIGNTHYNQKFKDRVTFTVDRSSSTAYMELSSLRSEDTAVYYCARELDSGFDYWGQGTLVTVSS
VL: DVVMTQSPDSLAVSLGERATINCRSSQNIVHSNGDTYLEWYQQKPGQPPKLLIYKVSNRFSGVPDRFSGSGSGTDFTLTISSLQAEDVAVYYCYQGSHVPWTFGQGTKLEIKR
[3]
  koff: 0.000265 s⁻¹
[4]
  koff: 0.0143 s⁻¹
[5]
  koff: 0.0141 s⁻¹
Biotin-huCGRPaSA
  Relative binding activity, %: 82%
CGRP antigen
  IC50: 0.0224 µg/mL
  relative activity (%) vs C245: 80%
